From paper PMC5337984, “CTCF participates in DNA damage response via poly(ADP-ribosyl)ation” come the findings set out here.

In this data set the target is T1, CTCF ZNF1-11 (GST-zinc finger domain) (human, UniProt P49711 266-577).
T1 sequence: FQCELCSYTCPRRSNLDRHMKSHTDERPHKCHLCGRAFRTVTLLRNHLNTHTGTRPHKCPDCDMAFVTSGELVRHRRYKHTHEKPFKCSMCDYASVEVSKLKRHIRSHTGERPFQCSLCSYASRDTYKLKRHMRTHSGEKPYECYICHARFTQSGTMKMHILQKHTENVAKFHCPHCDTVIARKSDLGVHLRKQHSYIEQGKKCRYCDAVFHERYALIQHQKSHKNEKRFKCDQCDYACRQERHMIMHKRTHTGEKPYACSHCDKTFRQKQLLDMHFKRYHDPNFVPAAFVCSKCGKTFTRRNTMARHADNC
The experiment in a line: EMSA; 50 mM MgCl2; 200 ng poly(dI/dC); EMSA: 25 mM HEPES pH 8.0, 50 mM KCl, 50 mM MgCl2, 1% NP40, 10% glycerol, 200 ng poly(dI/dC), 20 min at 4 C; 1 pmol protein, 0.5 pmol DNA. The settings on record: protein: recombinant; tags: GST (pGEX-4T-1; N-terminal); label: 32P; blunt (only one strand printed; described as duplex oligonucleotide). Background: A gel shift assay detects complexes by their altered migration in electrophoresis.

B1: insulator DNA 45-mer (dsDNA)
DNA 1: CCCCCAGGGATGTAATTACGTCCCTCCCCCGCTAGGGGGCAGCAG
DNA 2: CTGCTGCCCCCTAGCGGGGGAGGGACGTAATTACATCCCTGGGGG
As to B1, the binding result is on record as “binds”.
